B1: TPD52L1 (parent)
chain: ISKKFGDMSYSIRHSISMPAMRNS

Variants of: B1
Assay: protein stability index of a GFP-peptide fusion (GPS, HEK-293T) (PSI 1-6); higher = more stable
Conditions: c terminus: a fixed tail appended
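Note: lentivirally expressed fusions sorted by FACS into six bins by GFP to DsRed ratio, PSI derived from sequencing read proportions per bin multiplied by bin number.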

Variant	protein stability index
ISKKFGDMSQSIRHSISMPAMRNS [Y10Q]	2.76
ISKKFGDMSCSIRHSISMPAMRNS [Y10C]	2.17
ISKKFGDMSHSIRHSISMPAMRNS [Y10H]	2.69
ISKKFGDMSASIRHSISMPAMRNS [Y10A]	2.91
ISKKFGDMSNSIRHSISMPAMRNS [Y10N]	2.73
ISKKFGDMSWSIRHSISMPAMRNS [Y10W]	1.93
ISKKFGDMSFSIRHSISMPAMRNS [Y10F]	2.01
ISKKFGDMSSSIRHSISMPAMRNS [Y10S]	2.84
ISKKFGDMSYSIRHSISMPAMRDS [N23D]	2.32
ISKKFGDMSYSIRHSISMPAMRHS [N23H]	2.19
ISKKFGDMSYSIRHSISMPAMRCS [N23C]	1.91
ISKKFGDMSYSIRHSISMPAMRPS [N23P]	2.46
ISKKFGDMSYSIRHSISMPAMRKS [N23K]	2.48
ISKKFGDMSYSIRHSISMPAMRTS [N23T]	2.31
ISKKFGDMSYSIRNSISMPAMRNS [H14N]	2.38
ISKKFGDMSYSIRPSISMPAMRNS [H14P]	2.56
ISKKFGDMSYSIRLSISMPAMRNS [H14L]	3.05
ISKKFGDMSYSIRYSISMPAMRNS [H14Y]	1.7
ISKKFGDMSYSIRKSISMPAMRNS [H14K]	2.69
ISKKFGDMSYSIRESISMPAMRNS [H14E]	2.33
GSKKFGDMSYSIRHSISMPAMRNS [I1G]	2.65
DSKKFGDMSYSIRHSISMPAMRNS [I1D]	3.33
TSKKFGDMSYSIRHSISMPAMRNS [I1T]	2.9
CSKKFGDMSYSIRHSISMPAMRNS [I1C]	2.26

Variant	protein stability index
ASKKFGDMSYSIRHSISMPAMRNS [I1A]	2.58
ESKKFGDMSYSIRHSISMPAMRNS [I1E]	2.9
NSKKFGDMSYSIRHSISMPAMRNS [I1N]	2.87
FSKKFGDMSYSIRHSISMPAMRNS [I1F]	1.88
SSKKFGDMSYSIRHSISMPAMRNS [I1S]	3.16
MSKKFGDMSYSIRHSISMPAMRNS [I1M]	2.33
YSKKFGDMSYSIRHSISMPAMRNS [I1Y]	1.54
LSKKFGDMSYSIRHSISMPAMRNS [I1L]	2.23
ISKKFGDMSYSILHSISMPAMRNS [R13L]	1.77
ISKKFGDMSYSIPHSISMPAMRNS [R13P]	2.67
ISKKFGDMSYSIQHSISMPAMRNS [R13Q]	2.05
ISKKFGDMSYSIKHSISMPAMRNS [R13K]	2.14
ISKKFGDMSYSIIHSISMPAMRNS [R13I]	1.64
ISKKFGDMSYSIFHSISMPAMRNS [R13F]	2.01
ISKKFGDMSYSINHSISMPAMRNS [R13N]	2.1
ISKKFGDMSYSIEHSISMPAMRNS [R13E]	2.48
ISKKFGDMSYSIGHSISMPAMRNS [R13G]	2.45
ISKKFGDMSYSISHSISMPAMRNS [R13S]	2.02
ISKKFGDMSYSIDHSISMPAMRNS [R13D]	2.49
ISKKFKDMSYSIRHSISMPAMRNS [G6K]	1.74
ISKKFMDMSYSIRHSISMPAMRNS [G6M]	2.62
ISKKFRDMSYSIRHSISMPAMRNS [G6R]	2.35
ISKKFLDMSYSIRHSISMPAMRNS [G6L]	1.45
ISKKFYDMSYSIRHSISMPAMRNS [G6Y]	1.86

Variant	protein stability index
ISKKFGDMSYSIRHSISMLAMRNS [P19L]	2.35
ISKKFGDMSYSIRHSISMCAMRNS [P19C]	1.76
ISKKFGDMSYSIRHSISMRAMRNS [P19R]	1.9
ISKKFGDMSYSIRHSISMAAMRNS [P19A]	1.98
ISKKFGDMSYSIRHSISMVAMRNS [P19V]	1.87
ISKKFGDMSYSIRHSISMWAMRNS [P19W]	1.71
ISKKFGDMSYSIRHSISMMAMRNS [P19M]	2.58
ISKYFGDMSYSIRHSISMPAMRNS [K4Y]	2.71
ISKHFGDMSYSIRHSISMPAMRNS [K4H]	2.57
ISKTFGDMSYSIRHSISMPAMRNS [K4T]	2.48
ISKVFGDMSYSIRHSISMPAMRNS [K4V]	2.01
ISKWFGDMSYSIRHSISMPAMRNS [K4W]	1.76
ISKAFGDMSYSIRHSISMPAMRNS [K4A]	2.35
ISKKFGAMSYSIRHSISMPAMRNS [D7A]	2.15
ISKKFGLMSYSIRHSISMPAMRNS [D7L]	1.78
ISKKFGCMSYSIRHSISMPAMRNS [D7C]	1.69
ISKKFGGMSYSIRHSISMPAMRNS [D7G]	1.68
ISKKFGSMSYSIRHSISMPAMRNS [D7S]	2.34
ISAKFGDMSYSIRHSISMPAMRNS [K3A]	1.57
ISDKFGDMSYSIRHSISMPAMRNS [K3D]	2.34
ISVKFGDMSYSIRHSISMPAMRNS [K3V]	4.4
ISYKFGDMSYSIRHSISMPAMRNS [K3Y]	2.8
ISMKFGDMSYSIRHSISMPAMRNS [K3M]	2.67
ISIKFGDMSYSIRHSISMPAMRNS [K3I]	3.53

Variant	protein stability index
ISWKFGDMSYSIRHSISMPAMRNS [K3W]	3.69
ISTKFGDMSYSIRHSISMPAMRNS [K3T]	2.19
ISKKFGDMSYSIRHSISMPNMRNS [A20N]	2.58
ISKKFGDMSYSIRHSISMPRMRNS [A20R]	2.24
ISKKFGDMSYSIRHSISMPTMRNS [A20T]	2.58
ISKKFGDMSYSIRHSISMPVMRNS [A20V]	2.95
ISKKFGDMSYSIRHSISMPEMRNS [A20E]	2.58
ISKKFGDMSYSIRHSISMPIMRNS [A20I]	2.67
ISKKFGDMSYSIRHSISMPKMRNS [A20K]	2.35
ISKKFGDMSYSIRHSISMPWMRNS [A20W]	2.13
ISKKFGDMSYSIRHSISMPHMRNS [A20H]	2.28
ISKKFGDMSYSIRHSISMPQMRNS [A20Q]	2.26
ISKKFGDMSYSIRHSISMPAFRNS [M21F]	2.31
ISKKFGDMSYSIRHSISMPAARNS [M21A]	2.82
ISKKFGDMSYSIRHSISMPARRNS [M21R]	2.57
ISKKFGDMSYSIRHSISMPAGRNS [M21G]	2.4
ISKKFGDMSYSIRHSISMPAIRNS [M21I]	2.39
ISKKFGDMSYSIRHSISMPALRNS [M21L]	2.27
ISKKFGDMSYSIRHSISMPAPRNS [M21P]	2.54
ISKKFGDMSYSIRHSISMPACRNS [M21C]	3.31
ISKKFGDMSYSIRHSISMPAHRNS [M21H]	2.46
ISKKFGDMHYSIRHSISMPAMRNS [S9H]	2.38

— the supplement of paper PMC10567573
